Experimental data from the supplement of paper PMC9170038.

Test system: MS2 coat protein
Test: apparent KD of MS2 coat protein; designed switch direction (-1 OFF switch, 1 ON switch): 1; higher = weaker reporter binding
In short: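 Three titration conditions were used: no input, 200 uM small-molecule ligand, and an oligonucleotide input. In each, SNAP-549-labelled MS2 coat protein was raised from 0.7 or 1.5 nM, doubling, to 3 µM over designed RNA switches transcribed on Illumina chips by stalled E. coli RNA polymerase. Curve fits of normalised cluster fluorescence gave values whose per-design median over clusters is the apparent KD.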

[1] = input ligand: microRNA oligo, concentration not stated
[2] = Eterna round: R95, input ligand: FMN 200 uM
[3] = Eterna round: R95, input ligand: microRNA oligo, concentration not stated
[4] = Eterna round: R95, input ligand: none

| Sequence | apparent KD of MS2 coat protein (input ligand: FMN 200 uM) | apparent KD of MS2 coat protein [1] | apparent KD of MS2 coat protein (input ligand: none) | apparent KD of MS2 coat protein [2] | apparent KD of MS2 coat protein [3] | apparent KD of MS2 coat protein [4] |
| --- | --- | --- | --- | --- | --- | --- |
| GAGUAGUUGAAAGGAUAUUGAUUAUUGUAGGAUCAAGAAGGUUUUAACAUGAGGAUCACCCAUGUAGGACUAUAUAUGUGAAUA [Parity 95 - Jieux - Same State NG 1] (Eterna round: R96, puzzle: Same State NG 1) | 12.2 nM | 12.3 nM | 16 nM |  |  |  |
| AUUAAACAUGAGGAUCACCCAUGUCAACAUAGUCGAGGAUAUGGGCAAAUAAAAUAAGAACCAGAAGGCGAAUAAU [salish99_ss1_r3_075] (puzzle: Same State 1) |  |  |  | 45.2 nM | 266 nM | 335 nM |
| AGGGUACAUGAGGAUCACCCAUGUGGGUCGGUCGCAGGAUAUGCCCGUGGGCGCUGGCGGGCAGAAGGGUGCCGAA [Same State1-IX] (Eterna round: R96, puzzle: Same State 1) | 81.4 nM | 187 nM | 341 nM |  |  |  |
| UCAAUCAUGUAAGGAUAUGCAGCCGAAACGGCUGCAGAAGGUACUAUAAUUACAUGAGGAUCACCCAUGUUAUAAAAUAAAUAU [Mat - Same State NG 1 - JL mod - D80] (Eterna round: R96, puzzle: Same State NG 1) | 40.9 nM | 92.7 nM | 160 nM |  |  |  |
| CCGUAAAAUGGAGGAUAUGGAGCCUUAUUGGCUCCAGAAGGUCAUAAAACAUGAGGAUCACCCAUGUCGGCGGUCAAUAGACCG [Eli NG1ss - 78] (Eterna round: R96, puzzle: Same State NG 1) |  | 31.5 nM |  |  |  |  |
| GCUCGAUGAAAGUCCUACAUGAGGAUCACCCAUGUACGUGGGCAGGAUAUCUACAUGCAGAAUGUAGAGAAGGGCCCAUCGAGC [SameState NG3 #59] (Eterna round: R96, puzzle: Same State NG 3) | 10.4 nM | 15.1 nM | 25.2 nM |  |  |  |
| GCUAGAAUUAAUGCCAACAUGAGGAUCACCCAUGUAUGUUGGCAGGAUAUCGUUUGCUUUGCAAACGAGAAGGGCUAAACUAGC [JL SSNG3 1.03] (Eterna round: R96, puzzle: Same State NG 3) | 217 nM | 170 nM | 217 nM |  |  |  |
| AUACUGUACCGAGGAUAUCCAUUUUUCUAACAUGAGGAUCACCCAUGUGAAGGGAUUGAGUUGUAGGAGAAGGCGGUAUAGUAU [JR_SSNG2_Sub062] (Eterna round: R96, puzzle: Same State NG 2) | 14.8 nM | 11.6 nM | 21.5 nM |  |  |  |
| UAUAAACAUGAGGAUCACCCAUGUAAUAAUAUGGGAGGAUAUCAGAAUUUAUUUAUUUAAUGAGAAGGCCUAAUAU [Mat - Same State 1 - Mod of Eli - D67] (Eterna round: R96, puzzle: Same State 1) |  | 440 nM |  |  |  |  |
| GGUCCAGCCUGAGCUGGACGGUAGUAUGUACAUGAGGAUCACCCAUGUCAUGUAGAAGUUACUUGUUCGUCUUGAAC [SENSOR #1] (puzzle: Sensor for hsa-mir-208a) |  |  |  | 15.1 nM | 13.3 nM | 14.9 nM |
| GGAAAGAGGUUAGGAUAUGCAUGGCUGGGACAUGAGGAUCACCCAUGUAAUAGAAGAAAUCUAGGGUAGAAGGGACAAGGAAGG [ssng2 v2 a] (Eterna round: R96, puzzle: Same State NG 2) | 507 nM | 278 nM | 644 nM |  |  |  |
| AACCCAAUGGAAGGAUAUGGCACCUUAUUGGUGCCAGAAGGUCCUAACAUGAGGAUCACCCAUGUGGGCCGGUCGAAAGACCGG [Fiskers NG1ss - 6] (Eterna round: R96, puzzle: Same State NG 1) | 106 nM | 306 nM | 656 nM |  |  |  |
| GUUACAUGAGGAUCACCCAUGUAUGUGUGGGAGUAAGUGUCUUAGGAUAUCUAUGAUUGAAUUUAAGAGAAGGAAGAUUGUUGU [JMF's solution 77] (Eterna round: R96, puzzle: Same State NG 3) | 103 nM | 83.8 nM | 90.6 nM |  |  |  |
| GUUACAUGAGGAUCACCCAUGUAUGUGUGGGAGUAAGUGUCUUAGGAUAUCUAGUUUUUAAUUUAAGAGAAGGAAGAUUGUUGU [JMF's solution 52] (Eterna round: R96, puzzle: Same State NG 3) | 151 nM | 67.2 nM | 114 nM |  |  |  |
| UAAACUUCUUUUAGUGUAAUGCAAGUGAAACAUGAGGAUCACCCAUGUAAAGGAUCGUGAUAUUUUGUUCGUCUUAA [JR_SHM208A_Sub076] (puzzle: Sensor for hsa-mir-208a) |  |  |  | 57.2 nM | 32.5 nM | 83 nM |
| UGGUACAUGGGAGGAUAUGGAGUGAAGACAUGAGGAUCACCCAUGUUAUAAAAGCCGAGAGGCAACUAGAAGGCCCAUGUACCU [JL SSNG1 3.93] (Eterna round: R96, puzzle: Same State NG 2) | 14.3 nM | 37 nM | 55 nM |  |  |  |
| UUGUUUCGUCAUUAACAUGAGGAUCACCCAUGUAUUGACCCAAAGGAUAUAUAUGUUUGUUUGUAAUAGAAGGUUGAUUGUUGU [JR_SSNG3_Sub091] (Eterna round: R96, puzzle: Same State NG 3) | 19.9 nM | 16.8 nM | 20.6 nM |  |  |  |
| AUUUUUAAUGCAGGAUAUGAUUAACAUGAGGAUCACCCAUGUGGUGUUGUGAGUAAGGAGAGUGAUCAGAAGGGCAUUUUUUGU [JMF's solution 87] (Eterna round: R96, puzzle: Same State NG 2) | 827 nM | 301 nM | 621 nM |  |  |  |
| AAGCAUGAAAACAUGCAUAAAAAGUUUGUACAUGAGGAUCACCCAUGUAUGUGCAAGCUUUUUGCUCGUCUUGAAAA [JL SD Zipper 5] (Eterna round: R96, puzzle: Sensor for hsa-mir-208a) | 171 nM | 17.4 nM | 171 nM |  |  |  |
| CAGCGCUGUCGAGAGGAUAUGUGGUGAUGGACAUGAGGAUCACCCAUGUUAGCGACAGCAUCACGGCAGAAGGCUCUACCGCUGC [Soteed Omei mod 30] (puzzle: Same State 2) |  |  |  | 31.2 nM | 40.6 nM | 23.1 nM |
| CUGACUUGUCAAGGAUAUCACGUCGAUUAGACGUGAGAAGGUGAUCUACACAUGAGGAUCACCCAUGUGUUACGUGGGAGUCAG [Brourd's SSNG1/1-A2 mod 20] (Eterna round: R96, puzzle: Same State NG 1) | 34.8 nM | 69 nM | 94.7 nM |  |  |  |
| GUGUAUAGCCUCGAGGAUAUCCUGUAAUGCACAUGAGGAUCACCCAUGUAUGAGCGAGUUUUUUGGGAGAAGGCGAGUUAUCGGU [JR_SS002_Sub1709] (Eterna round: R96, puzzle: Same State 2) |  | 18 nM |  |  |  |  |
| AAACGGGCUACAGGAUAUGCUCGAUAAACUUCAGUAGAAGGGUGGCCUUAUCAACGAACAUGAGGAUCACCCAUGUUCUACAAC [Dianrisole] (Eterna round: R96, puzzle: Same State NG 1) | 77.2 nM | 28.3 nM | 136 nM |  |  |  |
| AAAAAACAUGAGGAUCACCCAUGUAAAAAAAACACAGGAUAUCCCUUUUUUAAAAAAAAAGGAGAAGGGUGAAAAA [Nob's Hobby 7 - Jieux - Same State 1] (Eterna round: R96, puzzle: Same State 1) |  | 36.4 nM |  |  |  |  |
| GUUACAUGAGGAUCACCCAUGUGUGUGUGGGAGUGAGUGGCUUAGGAUAUCUAUGAUUUAAGUUAAGAGAAGGAAGAUUGUUGU [SS-NG3-LRO03] (Eterna round: R96, puzzle: Same State NG 3) | 415 nM | 196 nM | 352 nM |  |  |  |
| GAGUGGAGGUAAGGAUAUAUAAUGAUAAUCACAGUAGAAGGUACUAACAUGAGGAUCACCCAUGUAGGACUAUACCAGAGAGGG [Parity 45 - Jieux - Same State NG 1] (Eterna round: R96, puzzle: Same State NG 1) |  | 11.9 nM |  |  |  |  |
| GUGGUCAGACAUGAGGAUCACCCAUGUGGAAUAAAUAAGGAGAAGGAUAUGAAAUAUAGGAUAUAUCAGAAGGUCUGGUUGGUG (Eterna round: R96, puzzle: Same State NG 3) |  | 59.9 nM |  |  |  |  |
| UUGAAGAAUAUAGGAUAUUGAAUACAUAUGUUUAACAUGAGGAUCACCCAUGUGGGUUGCGGUAUCGAGAAGGAUAAAUAAAAG [Mat - Same State NG 2 - JL mod - D14] (Eterna round: R96, puzzle: Same State NG 2) | 203 nM | 162 nM | 181 nM |  |  |  |
